Data as given in patent publication US20250263476A1 (ARGENX, published 2025).

Key:
C2 from rat = molecular target: T1, C2 from rat (rat, UniProt Q8CIP8 19-758); test: not described
T1 sequence: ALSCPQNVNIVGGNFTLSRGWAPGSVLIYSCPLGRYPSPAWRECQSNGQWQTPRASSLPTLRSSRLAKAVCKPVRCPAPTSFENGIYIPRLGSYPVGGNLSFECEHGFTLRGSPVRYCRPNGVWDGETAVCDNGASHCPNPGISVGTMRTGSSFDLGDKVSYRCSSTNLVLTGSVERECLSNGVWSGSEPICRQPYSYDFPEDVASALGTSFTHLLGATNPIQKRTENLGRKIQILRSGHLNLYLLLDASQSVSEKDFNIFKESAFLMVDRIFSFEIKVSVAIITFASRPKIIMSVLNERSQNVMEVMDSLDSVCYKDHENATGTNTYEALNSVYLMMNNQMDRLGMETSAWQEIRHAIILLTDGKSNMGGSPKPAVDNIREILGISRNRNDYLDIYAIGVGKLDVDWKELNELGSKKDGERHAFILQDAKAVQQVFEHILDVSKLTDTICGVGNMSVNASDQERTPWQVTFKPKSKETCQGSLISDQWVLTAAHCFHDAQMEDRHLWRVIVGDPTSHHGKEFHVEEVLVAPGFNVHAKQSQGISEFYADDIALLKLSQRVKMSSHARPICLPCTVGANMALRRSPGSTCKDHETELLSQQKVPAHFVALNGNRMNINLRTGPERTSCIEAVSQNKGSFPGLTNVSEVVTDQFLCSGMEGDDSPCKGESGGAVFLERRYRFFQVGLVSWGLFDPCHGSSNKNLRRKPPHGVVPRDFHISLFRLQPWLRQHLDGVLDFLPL

C2 from rabbit = molecular target: T2, C2 from rabbit (rabbit, UniProt G1SS66 21-744); test: not described
T2 sequence: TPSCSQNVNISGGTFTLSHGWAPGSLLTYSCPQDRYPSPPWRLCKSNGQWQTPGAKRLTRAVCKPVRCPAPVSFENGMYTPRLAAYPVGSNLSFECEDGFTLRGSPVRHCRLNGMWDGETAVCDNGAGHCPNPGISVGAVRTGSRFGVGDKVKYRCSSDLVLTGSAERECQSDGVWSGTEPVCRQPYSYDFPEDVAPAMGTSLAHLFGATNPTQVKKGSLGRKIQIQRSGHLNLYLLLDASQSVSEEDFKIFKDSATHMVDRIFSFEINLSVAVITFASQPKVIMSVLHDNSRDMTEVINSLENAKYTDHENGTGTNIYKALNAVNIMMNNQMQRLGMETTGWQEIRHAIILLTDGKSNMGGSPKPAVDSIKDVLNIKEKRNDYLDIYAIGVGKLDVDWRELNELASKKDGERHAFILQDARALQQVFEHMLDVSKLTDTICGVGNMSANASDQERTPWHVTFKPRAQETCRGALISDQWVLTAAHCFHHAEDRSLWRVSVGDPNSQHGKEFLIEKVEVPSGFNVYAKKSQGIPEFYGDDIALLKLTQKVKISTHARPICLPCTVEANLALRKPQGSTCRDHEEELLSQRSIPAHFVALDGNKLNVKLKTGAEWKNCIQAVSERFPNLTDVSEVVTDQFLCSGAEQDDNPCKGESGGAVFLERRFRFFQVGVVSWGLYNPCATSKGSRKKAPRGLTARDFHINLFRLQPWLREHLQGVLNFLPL

C2 from mouse = molecular target: T3, C2 from mouse (mouse, UniProt P21180 19-760, limits assumed); test: not described
T3 sequence (looked up): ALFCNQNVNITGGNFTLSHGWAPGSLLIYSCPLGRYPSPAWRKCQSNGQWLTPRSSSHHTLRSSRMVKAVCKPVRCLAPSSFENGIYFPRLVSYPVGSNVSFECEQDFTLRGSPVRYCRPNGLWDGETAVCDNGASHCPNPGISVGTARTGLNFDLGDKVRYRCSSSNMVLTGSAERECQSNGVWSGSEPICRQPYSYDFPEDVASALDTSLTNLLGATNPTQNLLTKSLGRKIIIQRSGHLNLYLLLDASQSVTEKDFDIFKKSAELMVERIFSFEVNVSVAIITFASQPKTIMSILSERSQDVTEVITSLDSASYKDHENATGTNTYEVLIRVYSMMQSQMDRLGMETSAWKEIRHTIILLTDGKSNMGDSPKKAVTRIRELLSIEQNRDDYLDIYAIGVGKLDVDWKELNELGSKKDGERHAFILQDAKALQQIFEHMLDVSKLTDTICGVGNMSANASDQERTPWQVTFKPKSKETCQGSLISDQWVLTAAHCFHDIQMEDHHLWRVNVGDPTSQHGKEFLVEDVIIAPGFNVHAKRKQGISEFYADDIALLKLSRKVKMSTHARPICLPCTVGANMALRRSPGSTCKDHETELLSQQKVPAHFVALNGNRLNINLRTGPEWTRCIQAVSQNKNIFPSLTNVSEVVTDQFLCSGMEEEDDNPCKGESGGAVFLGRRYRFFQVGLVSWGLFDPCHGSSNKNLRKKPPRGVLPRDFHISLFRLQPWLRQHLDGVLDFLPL

[1] = molecular target: T4, human complement component 2 (C2) (human, UniProt P06681 21-752, limits assumed); test: method not described; binding stated to be pH- and Ca2+-dependent; lower end of the printed range for human C2; pH/Ca2+ condition not stated
T4 construct: also called human C2
T4 sequence (looked up): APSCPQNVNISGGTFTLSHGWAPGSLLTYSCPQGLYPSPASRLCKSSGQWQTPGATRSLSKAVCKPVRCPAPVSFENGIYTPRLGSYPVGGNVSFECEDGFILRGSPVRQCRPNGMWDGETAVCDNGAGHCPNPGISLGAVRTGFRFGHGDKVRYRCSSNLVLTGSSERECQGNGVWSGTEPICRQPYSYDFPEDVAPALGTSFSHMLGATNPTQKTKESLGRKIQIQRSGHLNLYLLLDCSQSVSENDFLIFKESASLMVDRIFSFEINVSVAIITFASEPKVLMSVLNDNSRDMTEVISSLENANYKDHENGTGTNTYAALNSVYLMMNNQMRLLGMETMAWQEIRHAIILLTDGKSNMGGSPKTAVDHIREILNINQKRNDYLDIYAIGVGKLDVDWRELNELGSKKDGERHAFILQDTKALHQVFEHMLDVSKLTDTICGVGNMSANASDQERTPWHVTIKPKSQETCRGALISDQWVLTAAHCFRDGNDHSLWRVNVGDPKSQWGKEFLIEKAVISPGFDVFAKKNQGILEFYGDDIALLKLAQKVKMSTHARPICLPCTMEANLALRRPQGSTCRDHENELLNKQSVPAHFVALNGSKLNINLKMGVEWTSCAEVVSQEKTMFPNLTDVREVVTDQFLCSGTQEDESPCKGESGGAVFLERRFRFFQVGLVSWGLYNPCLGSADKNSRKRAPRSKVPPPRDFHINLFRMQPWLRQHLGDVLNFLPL

cynomolgus monkey C2 = molecular target: T5, cynomolgus monkey C2 (cynomolgus monkey, UniProt G8F3W0 21-752); test: method not described; binding stated to be pH- and Ca2+-dependent; lower end of the printed range for cynomolgus C2; pH/Ca2+ condition not stated
T5 sequence: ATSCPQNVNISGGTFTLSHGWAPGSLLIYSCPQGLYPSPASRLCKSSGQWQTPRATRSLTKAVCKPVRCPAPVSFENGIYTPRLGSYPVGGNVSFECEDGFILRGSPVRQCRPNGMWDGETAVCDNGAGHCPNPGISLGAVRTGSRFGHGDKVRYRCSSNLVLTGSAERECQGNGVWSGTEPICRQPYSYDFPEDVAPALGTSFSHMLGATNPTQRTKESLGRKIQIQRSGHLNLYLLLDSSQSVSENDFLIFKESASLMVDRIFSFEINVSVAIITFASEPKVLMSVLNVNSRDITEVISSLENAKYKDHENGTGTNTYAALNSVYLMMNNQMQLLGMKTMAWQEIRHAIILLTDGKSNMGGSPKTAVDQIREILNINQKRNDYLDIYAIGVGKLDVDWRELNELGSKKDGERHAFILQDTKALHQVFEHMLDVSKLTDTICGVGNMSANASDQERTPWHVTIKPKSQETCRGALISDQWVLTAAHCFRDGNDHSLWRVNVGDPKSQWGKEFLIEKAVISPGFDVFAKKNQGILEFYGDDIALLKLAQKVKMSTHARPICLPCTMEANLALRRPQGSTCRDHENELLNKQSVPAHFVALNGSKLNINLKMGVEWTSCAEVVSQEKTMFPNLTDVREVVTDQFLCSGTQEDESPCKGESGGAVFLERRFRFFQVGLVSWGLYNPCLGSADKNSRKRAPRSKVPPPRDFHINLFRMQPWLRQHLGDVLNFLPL

B1: ARGX-117 (antibody, human IgG1, kappa, L234A L235A, V domains shown)
VH: EVQLVQSGAEVKKPGASVKVSCKASGYTFTDYNMDWVRQATGQGLEWIGDINPNYESTGYNQKFKGRATMTVDKSISTAYMELSSLRSEDTAVYYCAREDDHDAFAYWGQGTLVTVSS
VL: DNVLTQSPDSLAVSLGERATISCRASKSVRTSGYNYMHWYQQKPGQPPKLLIYLASNLKSGVPDRFSGSGSGTDFTLTISSLQAEDAATYYCQHSRELPYTFGQGTKLEIKR
notes: also called anti-C2 antibody
binding result (C2 from rat): no binding | binding result (C2 from rabbit): no binding | binding result (C2 from mouse): no binding | Kd [1]: 0.109 to 2.02 nM | Kd (cynomolgus monkey C2): 0.056 to 0.13 nM
